Test results taken from US20260116996A1 (REGENTS OF THE UNIVERSITY OF MINNESOTA, published 2026).
One block for each binder: values may come before it.

Columns and labels:
human serpinB12 = molecular target: T1, human serpinB12 (human, UniProt Q96P63 1-405); test: Luminex bead assay, beads coated with human serpinB12, background (Gfp and Scgn beads) subtracted
T1 construct: Luminex antigen captured from a 293 cell lysate; not shown: V5-His tag of the pcDNA3.1 Directional V5-His-TOPO vector
T1 sequence (looked up): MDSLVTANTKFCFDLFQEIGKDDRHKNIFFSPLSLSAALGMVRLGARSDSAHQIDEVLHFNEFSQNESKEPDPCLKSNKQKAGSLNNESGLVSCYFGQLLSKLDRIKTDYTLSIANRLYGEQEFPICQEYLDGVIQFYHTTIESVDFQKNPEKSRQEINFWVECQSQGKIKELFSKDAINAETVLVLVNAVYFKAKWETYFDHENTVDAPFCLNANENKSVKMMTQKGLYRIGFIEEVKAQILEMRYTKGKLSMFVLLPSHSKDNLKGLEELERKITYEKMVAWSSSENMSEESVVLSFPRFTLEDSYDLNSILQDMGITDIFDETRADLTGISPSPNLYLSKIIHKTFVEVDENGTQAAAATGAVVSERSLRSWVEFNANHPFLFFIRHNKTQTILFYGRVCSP
Procedure: (§1) The latter was determined as the average antibody binding to Luminex beads coated with Gfp and Scgn control antigens. Similar data were obtained for antigen binding of Fab fragments of these antibodies (data not shown).
(§2) Luminex assay. Luminex-based technology was used to measure serpinB13 AA in human samples. Initially, the Luminex beads were precoated with serpinB13, Gfp and Scgn, using precleared lysates of 293 cells that had been transfected with individual cDNAs. Biotinylated mouse anti-human K and 2 chain mAbs (BD Biosciences) (dilution 1:300) and streptavidin (Invitrogen) (dilution 1:200) were used as secondary reagents to measure human serum binding activity to individual antigens. The data were expressed as fluorescence intensity (F.I.) due to serum binding activity in the presence of beads precoated with serpinB13 and after subtracting the average F.I. due to serum binding activity in the presence of beads precoated with control proteins, Gfp and Scgn (e.g. F.I.^B13-[F.I.^GFP+F.I.^Segn]/2). The samples were evaluated based on the level of F.I. and the degree of inhibition of binding to serpin-B13 coated beads with soluble serpinB13 (2.5 μg/mL), compared with the bovine serum albumin (BSA). […] All samples were run blind on three independent occasions. Subjects with serum samples that produced a positive results three times were considered positive. Subjects with serum samples that produced a negative result on at least one occasion were considered negative.
(§3) To determine whether anti-serpin activity is specific, binding of three human recombinant antibodies to serpinB13 was examined for potential cross-reactivity with other clade B serpins. Binding to the beads conjugated with Gfp and Scgn was used to subtract the background and the assay was developed using the same reagents as those described above for measuring serpinB13 AA in serum samples.

human serpinB3 = molecular target: T2, human serpinB3 (human, UniProt P29508 1-390); test: ELISA cross-reactivity test / Luminex bead assay (FIG. 25)
T2 construct: Luminex antigen captured from a 293 cell lysate; not shown: V5-His tag of the pcDNA3.1 Directional V5-His-TOPO vector
T2 sequence (looked up): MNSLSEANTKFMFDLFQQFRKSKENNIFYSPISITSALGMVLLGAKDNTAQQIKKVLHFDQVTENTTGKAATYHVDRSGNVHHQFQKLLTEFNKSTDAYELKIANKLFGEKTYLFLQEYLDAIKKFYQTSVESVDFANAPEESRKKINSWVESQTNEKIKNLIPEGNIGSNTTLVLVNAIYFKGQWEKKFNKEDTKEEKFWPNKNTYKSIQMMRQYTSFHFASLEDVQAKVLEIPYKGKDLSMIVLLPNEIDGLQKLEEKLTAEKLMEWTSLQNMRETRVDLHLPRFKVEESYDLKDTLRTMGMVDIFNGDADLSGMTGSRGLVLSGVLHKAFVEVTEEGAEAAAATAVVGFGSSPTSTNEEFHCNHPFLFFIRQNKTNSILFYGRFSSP
Procedure: (§4) Three recombinant human anti-serpinB13 antibodies were examined in the Luminex-based assay for binding to other clade B serpins, in order as indicated. The final concentration of each antibody was 1.0 μg/mL. The data are expressed as immunofluorescence intensity measured for binding to individual human serpin antigens after subtracting the background. The latter was determined as the average antibody binding to Luminex beads coated with Gfp and Scgn control antigens. Similar data were obtained for antigen binding of Fab fragments of these antibodies (data not shown).
as §2
(§5) To determine whether anti-serpin activity is specific, binding of three human recombinant antibodies to serpinB13 was examined for potential cross-reactivity with other clade B serpins.

human serpinB10 = molecular target: T3, human serpinB10 (human, UniProt P48595 1-397); test: as above
T3 construct: Luminex antigen captured from a 293 cell lysate; not shown: V5-His tag of the pcDNA3.1 Directional V5-His-TOPO vector
T3 sequence (looked up): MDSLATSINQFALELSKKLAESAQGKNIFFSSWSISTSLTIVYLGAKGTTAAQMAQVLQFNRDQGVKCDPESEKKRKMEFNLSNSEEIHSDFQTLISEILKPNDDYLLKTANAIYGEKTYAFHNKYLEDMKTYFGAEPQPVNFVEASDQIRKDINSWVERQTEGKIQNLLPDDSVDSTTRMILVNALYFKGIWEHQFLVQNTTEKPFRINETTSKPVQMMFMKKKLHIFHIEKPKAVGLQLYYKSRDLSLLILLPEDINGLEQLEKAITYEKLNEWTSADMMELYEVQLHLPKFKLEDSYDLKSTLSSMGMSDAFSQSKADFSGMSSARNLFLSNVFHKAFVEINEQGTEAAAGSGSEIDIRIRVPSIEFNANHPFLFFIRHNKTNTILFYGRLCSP
Procedure: as §4, §2, §5

human serpinB8 = molecular target: T4, human serpinB8 (human, UniProt P50452 1-374); test: Luminex bead assay, beads coated with human serpinB8, background (Gfp and Scgn beads) subtracted
T4 construct: Luminex antigen captured from a 293 cell lysate; not shown: V5-His tag of the pcDNA3.1 Directional V5-His-TOPO vector
T4 sequence (looked up): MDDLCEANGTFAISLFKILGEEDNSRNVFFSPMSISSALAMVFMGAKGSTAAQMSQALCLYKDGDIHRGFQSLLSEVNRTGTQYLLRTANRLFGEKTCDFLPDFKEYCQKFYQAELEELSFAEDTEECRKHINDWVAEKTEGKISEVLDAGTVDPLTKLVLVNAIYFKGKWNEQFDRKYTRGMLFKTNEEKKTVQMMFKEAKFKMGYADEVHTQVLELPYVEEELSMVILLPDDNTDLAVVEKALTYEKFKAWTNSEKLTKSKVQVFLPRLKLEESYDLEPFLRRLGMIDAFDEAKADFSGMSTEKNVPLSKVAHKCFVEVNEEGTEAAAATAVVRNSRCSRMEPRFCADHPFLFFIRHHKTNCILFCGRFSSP
Procedure: as §1, §2, §3

binding result (human serpinB12): no binding (tested: 1.0 µg/mL) | binding result (human serpinB3): no binding (tested: 1.0 µg/mL) | binding result (human serpinB10): no binding (tested: 1.0 µg/mL) | binding result (human serpinB8): no binding (tested: 1.0 µg/mL)
B1: recombinant fully human anti-serpinB13 antibody Clone 2 (antibody, human IgG1, kappa, V domains shown)
VH: QMQLVQSGGGVVRPGGSLRLSCAASGFTFDDYGMSWVRQAPGKGLEWVSGINWNGGSTGYADSVKGRFTISRDNAKNSLYLQMNSLRAEDTALYYCARESSMTTVTTYLLREVGVGLDFDYWGQGTLVTVSS
VL: ETTLTQSPGTLSLSPGERATLSCRASQTVSGSYLAWYQQKPGQPPRLLIYGASSRATGIPDRFSGSGSGTDFTLTISRLEPEDFAVYYCQDYGSSRTFGQGTKVELKR
notes: also called mAb2; CLONE2-H(m1) / CLONE2-L(m1)

binding result (human serpinB12): no binding (tested: 1.0 µg/mL) | binding result (human serpinB3): no binding (tested: 1.0 µg/mL) | binding result (human serpinB10): no binding (tested: 1.0 µg/mL) | binding result (human serpinB8): no binding (tested: 1.0 µg/mL)
B2: recombinant fully human anti-serpinB13 antibody Clone 3 (antibody, human IgG1, kappa, V domains shown)
VH: QVQLQQWGAGLLKPSETLSLTCAVYGGSFSGYYWSWIRQPPGKGLEWIGEINHSGSTNYNPSLKSRVTISVDTSKNQFSLKLSSVTAADTAVYYCARRYCSGGSCYLVGTGSELDYWGQGTLVTVSS
VL: DIQMTQSPSTLSASVGDRVTITCRASQSISSWLAWYQQKPGKAPKLLIYKASSLEIGVPSRFSGSGYGTEFTLTISSLQPDDFATYYCLQYSTHSTFGQGTRVEIKR
notes: also called mAb3; CLONE3-H(m1) / CLONE3-L(m1)

binding result (human serpinB12): no binding (tested: 1.0 µg/mL) | binding result (human serpinB3): no binding (tested: 1.0 µg/mL) | binding result (human serpinB10): no binding (tested: 1.0 µg/mL) | binding result (human serpinB8): no binding (tested: 1.0 µg/mL)
B3: recombinant fully human anti-serpinB13 antibody Clone 1 (antibody, human IgG1, kappa, V domains shown)
VH: QVQLQESGGGVVQPGRSLRLSCAASGFTFSSYGMHWVRQAPGKGLEWVAVISYDGSNKYYADSVKGRFTISRDNSKNTLYLQMNSLRAEDTAVYYCARDLGAVIAVAGTSTPYNWFDPWGQGTLVTVSS
VL: DVVMTQSPLSLPVTPGEPASISCRSRQSLLHSNGHNYLGWYLQKPGQSPQLLIYLASIRASGIPDRFSGSGSGTDFTLKISRVEAEDVGVYYCMQALQTPYTFGQGTKLEIKR
notes: also called mAb1; mAbs1
